Laboratory results: patent US20260035452A1, “NOVEL INTERLEUKIN-17A (IL-17A)-DERIVED PEPTIDE AND NEUTRALIZING ANTIBODY (AB17-IPL-1)” (THE UNIVERSITY OF BIRMINGHAM, priority 2022, published 2026)

Biological target: IL-17 (used on human synovial fibroblasts, Example 9)
Assay: cell-based or functional assay

With MAB421 (antibody) the IL-6 production by human RA fibroblasts stimulated with IL-17 (10 ng/ml) and TNF-α (100 U/ml); 3662.05 µg/ml without antibody; antibody at 10 µg/ml was 2320 µg/mL.
